According to the supplement of paper PMC12764529:
± gives the half width of the 95% confidence interval.

assay: folding stability dG unfold (combined trypsin and chymotrypsin); higher = more stable
Summary of the method: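 K50 was inferred by Bayesian fitting of sequencing counts obtained after protease digestion of designed mini-proteins. Unfolding free energy was derived by comparison with a sequence-predicted unfolded-state K50 and a shared folded-state K50, for each protease or both combined. The mini-proteins were under 80 residues, had no cysteine, were carried in a PA-tagged cDNA display construct, and were kept only if AlphaFold2 dimer inter-PAE exceeded 15.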

| Sequence | folding stability dG unfold |
| --- | --- |
| SAGGMEIVSSGSLEEAIALLKENPNTTITVTLPDGTTVVIKVTQNGEGPYIYDVSTEPPAAAPSPSLVSAGG [r13_56_JUSTAS] | 1.66 ± 0.079 kcal/mol |
| SAGGKYVIIMFPLPPNLEVEIEYPGVPVHRTPNGSLMFQIPPNEPIRIKIKNPNGEEEELPINIFPLSAGGS [r8_72_TrROS] | 2.2 ± 0.2 kcal/mol |
| SAGGSAGGSAGGGKLRIKLYHPETGKISEIEVEVPDKPLEEVLEELEKELGVEVVDASLESAGGSAGGSAGG [r7_590_TrMRF] | 1.44 ± 0.14 kcal/mol |
| SAGGKPKVEIKIEEIPVDGELYLVIEIKVEEKNATLTLTLPNGEEITMEFDEETGTVRIIARIPLEDLSAGG [r13_380_TrROS_Hall] | 3.12 ± 0.22 kcal/mol |
| SAGGIDLDDLPPGDIFIFIKIKMEPVKVDDPDGKEYNRMEIEIFIFRFDPPNGKIQFEPIPMEFYIRSAGGS [r8_486_TrROS] | 3.19 ± 0.23 kcal/mol |
| SAGGSAGGGSLKYTPGVHRLTYYDPATGTTTTLTFTSEEEALEYLKKKYPDVPWKRNPDGTWVLSAGGSAGG [r6_288_JUSTAS] | 2.08 ± 0.25 kcal/mol |
| SAIEITVMSDSPEEAKEKAKEFANWLQNRMRRDGLPDMPIPIKIEVIPVPPPKPKPKRDPDDGEWKPDPSAG [r14_475_TrROS] | 0.487 ± 0.23 kcal/mol |
| SAGGSAIKLPPGVKIEYHMHPDGYMTITIEYPNGRPIEIPMRMDPNGPREMTPDQIRDFIKELLKNSAGGSA [r15_780_TrROS] | 2.4 ± 0.049 kcal/mol |
| SAGFTIEIENEDGKKITFRFPGWKIEIYPKDGIIMMRYPEENMSIMIKVDPNKIKIQVYDGGKWRWFPISAG [r5_786_TrROS] | 3.69 ± 0.47 kcal/mol |
| SAPDWVKIKFPFRFYNPDPDGKPMAKMKLEIEVYPSPGAYMAKIEDPNFGMKITFPFDSPEEVKDFLQNSAG [r14_508_TrROS] | 1.23 ± 0.32 kcal/mol |
| SAGGLKIPVGSAEDALKAFEAIEEPVLVRTKDRKFVRELKLEDIKELVEKGVEFEFVLPSELPEEERKESAG [r5_677_TrMRF] | 0.566 ± 0.39 kcal/mol |
| SAGGSAGGSAMKVSTTPVTLPNGESATLETLPDGTKVLKVGDKYIVVYPSGEVKEVPLEELLSAGGSAGGSA [r18_379_JUSTAS] | 1.59 ± 0.12 kcal/mol |
| SGLLEKFLKEAEEWIKKLGLKVKPGEKVEIPIPFENNLIAKIEFYPGEKIIKVVLIGENKPVEYKFKIEKSA [r9_426_TrMRF] | 1.88 ± 0.45 kcal/mol |
| SAGGSAGGSMRTITYEFPPGTTKEEVIEKVKELAKKEGLPIEKIESITEDPETGTYTVTVVVKSAGGSAGGS [r12_131_JUSTAS] | 4.59 ± 0.34 kcal/mol |
| SAGGSAGGSAGGSMATITPEGDKYLVTITNPDGSTTTKEFDSLEEVKKLPSSYPIEFSDSAGGSAGGSAGGS [r4_447_JUSTAS] | 1.52 ± 0.094 kcal/mol |
| SAGGKKKKTIVIVLEVSEEEAEKIIEALKKELEKKGFKIEKIEVRKVPDKPMVIVTIKLENGEELTFISAGG [r13_421_TrROS_Hall] | 2.44 ± 0.073 kcal/mol |

| Sequence | folding stability dG unfold |
| --- | --- |
| SAGSIEAAVEALEKELREKGYKVSVELVETDPSDPNRLNLVIRVTVEGFSPESKPLGKKEETYVIEGGSAGG [r19_418_JUSTAS] | 1.28 ± 0.14 kcal/mol |
| SAGGSAGGSAGGMSSTVSLSTSFLPNGEKVVTTTTTFTDSSTTTTTTTTTTVALPPPSVVSAGGSAGGSAGG [r7_495_JUSTAS] | 1.23 ± 0.14 kcal/mol |
| SAGGSKVTLEVNEDGTVTLTVTRPDGKKVTLTITKNEDGTYTIRDEETGKTITVPAGMSIEELLKASAGGSA [r2_338_TrROS_Hall] | 5.09 ± 0.1 kcal/mol |
| SAGGSAGGSPEVLASFPLKDGSVVIVARRPGEIRVLVVKSSDLENIPELKDIKVFPTFGDDPVSAGGSAGGS [r12_343_TrMRF] | 1.19 ± 0.05 kcal/mol |
| SAGGSAGGSAFIRAEYKLPENKVLEIEIPVPESVLKKMSIEEVKELFKKLGLPDDVKIEFYDESAGGSAGGS [r12_742_TrMRF] | 1.66 ± 0.098 kcal/mol |
| SAGGFTIEFPLPPGESPDEIKDEIMDMVRPIADEHGFKNVKIPITNVRWQPPGRRRFTINIEIKFPGSAGGS [r8_184_TrROS] | 0.727 ± 0.22 kcal/mol |
| SAIRIEEITIDPEYGVITITFDYPMPPGAEKIKFKIFIDGFKIKEIEYEVDPENGWVRMTLTIRIPKDASAG [r14_244_TrROS] | > 6 kcal/mol |
| SAGGSAGGSMKIKVEVEMEKVKDPKKKGEYIYKMKIKKVEIELSEEEKEKLKELAEKLGIEVESAGGSAGGS [r12_249_TrROS_Hall] | 2.08 ± 0.17 kcal/mol |
| SAGGSVVTTTFTYPDGTVVTTTTTPRPETLLTTTTTTTFYPDKPVKVAPGKEVVTTVTTTTTTVTPAASAGG [r13_780_JUSTAS] | 0.54 ± 0.069 kcal/mol |
| SAGGMTIEKEDGKYRITITINGKTYTFTIPKELENKTEEEIAAELAAELAEKFGLKEITEIKIEKVPSAGGS [r8_402_TrROS_Hall] | 3.14 ± 0.1 kcal/mol |
| SAGKKVTILIVVPETEEEAKKLAEELAKELAEKTGLEKVEVKVVPKGMTLEQLKELAKENNVDLVILVSAGG [r19_89_TrROS_Hall] | 3.17 ± 0.24 kcal/mol |
| SAGGSAMVRLPDGTLVIDVKLPEDRPDAKVTVTVLEDGSPVGSVDVNTGKVTISVSPGVSVSITVESAGGSA [r15_180_JUSTAS] | 1.79 ± 0.052 kcal/mol |
| SAGGPMPPGQKRTVTIDLEYNPENGGYRVRAYSPGGKPIEEFPFPRDNLEEFAEEFANKGVDYVEIEPSAGG [r13_765_TrROS] | 0.325 ± 0.16 kcal/mol |
| SAAVPSDLTLTTLETKKEKFDDNEYTVVKSVLLRPGAPGATVTEYTTVYKGDKVVETKPSERTVSPALLSAG [r14_651_JUSTAS] | -0.0404 ± 0.15 kcal/mol |
| SAGGMPAKAVTTKLPDGTDRITVTTVGSGKSATIPVPAGELKVIEIEEGEETLSVSFVEVGPDNPELGSAGG [r13_122_TrMRF] | 0.104 ± 0.056 kcal/mol |
